Measurements as given in patent US10888549B2, “Pharmaceutical agents targeting cancer stem cells” (THE JOHNS HOPKINS UNIVERSITY, priority 2016, dated 2021).

Experiments:
[1] = tested on: SOX2; test: SOX2 expression by western blotting / flow cytometry; type: cell-based, human; conditions: basal-type cells
Protocol: Whole cell lysates were extracted using RIPA buffer (Thermo Scientific) supplemented with 10 μL/mL Halt™ Protease Inhibitor Cocktail Kit (Life Technologies) and 30 μL/mL Halt™ Phosphatase Inhibitor Cocktail Kit (Life Technologies). The protein concentrations were determined using a Pierce™ BCA Protein Assay Kit (Life Technologies), and the protein were separated on NuPAGE® 4-12% Bis-Tris Gel (Life Technologies) according to the manufacturer's protocol. […]
For extracellular staining, cells (1×10^6/100 μL stain buffer) were incubated with PE-Vio770-conjugated anti-human CD133 (293C3; Miltenyi Biotec, Auburn, USA) or PE-conjugated anti-human CD24 antibody (cat #, 560991; BD Biosciences) for 30 min at 4° C. in dark. […] Data were acquired on a BD FACSCalibur flow cytometer (BD Biosciences) using BD CellQuest Pro software (BD Biosciences) and analyzed with FlowJo software v10.1 (Tree Star, Ashland, USA).

[2] = tested on: YAP1; test: YAP1 expression by western blotting; type: cell-based, human; conditions: basal-type cells
Protocol: Whole cell lysates were extracted using RIPA buffer (Thermo Scientific) supplemented with 10 μL/mL Halt™ Protease Inhibitor Cocktail Kit (Life Technologies) and 30 μL/mL Halt™ Phosphatase Inhibitor Cocktail Kit (Life Technologies). The protein concentrations were determined using a Pierce™ BCA Protein Assay Kit (Life Technologies), and the protein were separated on NuPAGE® 4-12% Bis-Tris Gel (Life Technologies) according to the manufacturer's protocol. COX2 (D5H5), NANOG (D73G4), OCT4 (D7O5Z), CD133 (A3G6K), Snail (C15D3), ZEB1 (D80D3), Vimentin (D21H3), CDH2 (D4R1H), CDH1 (24E10), p-EGFR (D7A5), EGFR (D38B1), p-AKT (D9E), AKT (cat #, 9272), p-ERK (D13.14.4E), ERK (137F5), p-YAP1 (D9W2I), p-Src (cat #, 2101), Src (36D10), DNMT1 (D63A6), DNMT3A (D23G1), and DNMT3B (D7O7O) antibodies were obtained from Cell Signaling Technology (Danvers, Mass., USA), except for SOX2 (EPR3131; Abcam, Cambridge, USA), YAP1 (ab52771; Abcam), CD24 (cat #, AF5247-SP; R&D Systems, Minneapolis USA) and β-actin (A2228; Sigma-Aldrich). Secondary horseradish peroxidase (HRP)-conjugated antibodies were obtained from Cell Signaling Technology, and chemiluminescent detection of HRP-labeled antibodies was performed using Amersham ECL Prime Western Blotting Detection Reagent (GE Healthcare, Piscataway, USA). As loading control, β-actin was used.

B1: EGF: Recombinant human epidermal growth factor (EGF) (protein, UniProt P01133 23-1207, looked up)
Pro-epidermal growth factor: PQHWSCPEGTLAGNGNSTCVGPAPFLIFSHGNSIFRIDTEGTNYEQLVVDAGVSVIMDFHYNEKRIYWVDLERQLLQRVFLNGSRQERVCNIEKNVSGMAINWINEEVIWSNQQEGIITVTDMKGNNSHILLSALKYPANVAVDPVERFIFWSSEVAGSLYRADLDGVGVKALLETSEKITAVSLDVLDKRLFWIQYNREGSNSLICSCDYDGGSVHISKHPTQHNLFAMSLFGDRIFYSTWKMKTIWIANKHTGKDMVRINLHSSFVPLGELKVVHPLAQPKAEDDTWEPEQKLCKLRKGNCSSTVCGQDLQSHLCMCAEGYALSRDRKYCEDVNECAFWNHGCTLGCKNTPGSYYCTCPVGFVLLPDGKRCHQLVSCPRNVSECSHDCVLTSEGPLCFCPEGSVLERDGKTCSGCSSPDNGGCSQLCVPLSPVSWECDCFPGYDLQLDEKSCAASGPQPFLLFANSQDIRHMHFDGTDYGTLLSQQMGMVYALDHDPVENKIYFAHTALKWIERANMDGSQRERLIEEGVDVPEGLAVDWIGRRFYWTDRGKSLIGRSDLNGKRSKIITKENISQPRGIAVHPMAKRLFWTDTGINPRIESSSLQGLGRLVIASSDLIWPSGITIDFLTDKLYWCDAKQSVIEMANLDGSKRRRLTQNDVGHPFAVAVFEDYVWFSDWAMPSVMRVNKRTGKDRVRLQGSMLKPSSLVVVHPLAKPGADPCLYQNGGCEHICKKRLGTAWCSCREGFMKASDGKTCLALDGHQLLAGGEVDLKNQVTPLDILSKTRVSEDNITESQHMLVAEIMVSDQDDCAPVGCSMYARCISEGEDATCQCLKGFAGDGKLCSDIDECEMGVPVCPPASSKCINTEGGYVCRCSEGYQGDGIHCLDIDECQLGEHSCGENASCTNTEGGYTCMCAGRLSEPGLICPDSTPPPHLREDDHHYSVRNSDSECPLSHDGYCLHDGVCMYIEALDKYACNCVVGYIGERCQYRDLKWWELRHAGHGQQQKVIVVAVCVVVLVMLLLLSLWGAHYYRTQKLLSKNPKNPYEESSRDVRSRRPADTEDGMSSCPQPWFVVIKEHQDLKNGGQPVAGEDGQAADGSMQPTSWRQEPQLCGMGTEQGCWIPVSSDKGSCPQVMERSFHMPSYGTQTLEGGVEKPHSLLSANPLWQQRALDPPHQMELTQ
modifications: Pro-epidermal growth factor
Which SOX2 expression [1] does the source give for B1 here?
Its SOX2 expression is “increased”.

What about the YAP1 expression [2] of the same molecule?
Its YAP1 expression is “increased”.
